From PMC10720262 (2023)
Substitutions are numbered along the chain they refer to.

B1: CL-444387 (antibody, V domains shown)
VH: QVHLVESGGGVVQPGRSLRLSCVASGFSFSSYGMHWVRQAPGKGLEWVAIIWYDGSYTYYADSVKGRFTISRDNSKNTLYLQMNSLRVEDTAVYYCAKVGLSYNGRTGAFDIWGQGTMVTVSS
VL: not shown
modifications: peptides N-terminally acetylated and C-terminally amidated
B2: CL-445457 (antibody, V domains shown)
VH: QVQLVESGGAVVQPGTSLRLSCAASGFTFSNYGIHWVRQAPGKGLQWVALIWYNGNNKFYADSVQGRFTISRDNSKNILYLQINSLSAEDTAVYYCARAFYSDSGNYMDYWGQGALVTVSS
VL: DIQMTQSPSSVSASVGDRVTITCRARQDISSRLAWYQQKPGKAPKILIYGASSLQSGVPSRFSASGSGTDFTLTISSLQPEDVASYFCQQANSFPWTFGQGTKVEIK
modifications: peptides N-terminally acetylated and C-terminally amidated
B3: CL-531286 (antibody, V domains shown)
VH: QVQLVESGGGLVQPGRSLRLSCAASGFTFSSSGMHWVRQAPGKGLEWVAVIWYDGSNKFYADSVKGRFTISRDNSKNTLYLQMNSLRAEDTAVYYCARSGYDILTGYFNFFDPWGQGTLVTVSS
VL: EIVLTQSPGTLSLSPGERATLSCRASQSVSSSHLAWYQQKPGQAPRLLIYGASSRATGIPDRFSGSGSGTDFTLTISRLEPEDFAVYYCHQYVSSFTFGPGTKVDFK
modifications: peptides N-terminally acetylated and C-terminally amidated
B4: Ky15.3 (antibody, V domains shown)
VH: QVQLVESGGGVVQPGRSLRLSCVASGFTFSNAGMHWVRQTPGKGLEWVAIIWYDGSIKYYGESVKGRFTISRDNSKNTLYLEMSSLRAEDTAVYFCVRAYSGSLYDKYGMDVWGQGTTVIVSS
VL: DIQMTQSPSTLSASVGDRVTISCRASQTISTWLAWFQQKPGKAPKLLIYAASSLQSGVPSRFSGSGSGTDFTLTISNLQPDDFATYYCQQFNSYWTFGQGTKVEIK
modifications: peptides N-terminally acetylated and C-terminally amidated
B5: CL-531271 (antibody, V domains shown)
VH: QVQLVESGGGEVQPGRSLRLSCAASGFTFSNYGMHWVRQAPGKGLEWVALIWYDGNNKFYADSVNGRFTISRDNSNNTLYLQMNSLRAEDTGVYYCARSFYYVSGNFFDYWGQGTLVTVSS
VL: DIPMTQSPSSVSASVGDRVTITCRASQGISTWLAWYQQKPGKAPKFLIYAASSLQSGVPSRFSGSGSGTDFTLTIYSLQPEDFATYYCQQGNSFPWTFGQGTKVEIK
modifications: peptides N-terminally acetylated and C-terminally amidated
B6: CL-444592 (antibody, V domains shown)
VH: QVQLVESGGGVVQPGRSLRLSCAASGFTFSSYGMHWVRQAPGKGLEWVAVIWYDGSNKYYADSVKGRFTISRDNSKNTLYLQMNSLRAEDTAVYYCARDGNWNYNYYYGMDVWGQGTTVTVSS
VL: DIQLTQSPSFLSASVGDRVTITCWASQGISSYLAWYQQKPGKAPKLLIYAASTLQSGVPSRFSGSGSGTEFTLTISSLQPEDFATYYCQQLNSYPPTFGQGTRLEIK
modifications: peptides N-terminally acetylated and C-terminally amidated
B7: Ky15.11 (antibody, V domains shown)
VH: QVQLVESGGGVVQPGRSLRLSCEASGFTFSNFGMHWVRQTPVKGLEWVAIIWFDGSYKYYTDSVKGRFTISRDNSKNTLYLQMNSLRAEDTAVYYCARARKGQRSDYYGSETSYTFDNWGQGTLVTVSS
VL: DIQMTQSPSTLSASVGDRVTITCRASQSINGWLAWYQQKPGKAPKFLIYKASILESGIPSRFSGSGSGTEFTLTISSLQPDDFATYYCQQYSSYWTFGQGTKVEIK
modifications: peptides N-terminally acetylated and C-terminally amidated
B8: Ky15.7 (antibody, V domains shown)
VH: QVQVVESGGGAVQPGRSLRLSCAASGFTFSNRGMHWVRQTPGKGLEWVAIIWYDGGNKFYADSVKGRFTISRDNSKNTLYLQMNSLRDEDTAVYYCVRAGDWKADKYTMDVWGQGTTVTVSS
VL: B7 VL with N30S, G31S, F46V, K50Q, I53S, I58V, S92N
modifications: peptides N-terminally acetylated and C-terminally amidated
B9: CL-511862 (antibody, V domains shown)
VH: QVQLVESGGGVVQPGKSLRLSCAASGFSFSSSGMHWVRQAPDKGLEWVAIIWYDGSHKFYADSVKGRFTISRDNSDNTLFLQMDSLRAEDTAVYYCVRAYPTSYNGNYDKYGMDVWGQGTTVTVSS
VL: B7 VL with T22A, N30S, G31T, F46L, I53T, I58V, Y91F, S92T, S93F
modifications: peptides N-terminally acetylated and C-terminally amidated
B10: CL-512459 (antibody, V domains shown)
VH: QVQLVESGGGVVQPGRSLRLSCTASGFTFSDYGMHWVRQAPGKGLEWVSIIWYDGSKKYYADSVQGRFTISRDNSKNTLYLQMSSLRAEDTAVYYCARAYGSGSYYTFNYWGQGTLVTVSS
VL: EIVMTQSPATLSVSPGERATLSCRASQSVNSNLAWYQQKPGQAPRLLIYGASTRATGFPARFIGSGSGTDFTLTINSLQSEDFAVYYCQQYNHWWTFGQGTKVEIK
modifications: peptides N-terminally acetylated and C-terminally amidated
B11: CL-511776 (antibody, V domains shown)
VH: QVQLVESGGGVVQPGRSLTLSCAASGFTFSNFGMHWVRQAPGKGLEWMAVIWYDGNNEFYADSVKGRFTISRDNSKNMLYLHMNSLRAEDTAIYYCAREGDYSASGSHWLFDPWGQGTQVTVSS
VL: DIQMTQSPSTLSASVGDSITITCRASQSINIWLAWYQQKPGKAPNLLIYKASSLESGVPSRFSGSGSGTEFTLTINSLQPDDFATYYCQQYNNYVTFGGGTKVEIK
modifications: peptides N-terminally acetylated and C-terminally amidated
B12: CL-512374 (antibody, V domains shown)
VH: QVQLVESGGGVVQPGRSLRLSCAASGFTFSSYGMHWVRQAPGKGLEWVAVIWYDGSNKYYADSVKGRFTISRDNSKNTLYLQMNSLRAEDTAVYYCARDGGGTTRSFDLWGRGTLVTVSS
VL: QSVLTQPPSVSGAPGQRVTISCTGSSSNIGAGYDVHWYQQLPGTAPKLLIYGNSNRPSGVPDRFSGSKSGTSASLAITGLQAEDEADYYCQSYDSSLSGSMFGGGTKLTVL
modifications: peptides N-terminally acetylated and C-terminally amidated
B13: CL-510082 (antibody, V domains shown)
VH: QVQLVESGGGVVQPGKSLRLSCVASGFTFSNNGMHWIRQAPGKGLEWVAIIWYDGSNKFYADSVKGRFTISRDNSHNTLYLQMNSLRAEDTAVYYCARDRMFGSGTWNYFDPWGQGTLVTVSS
VL: EIVLTQSPATLSLSPGERATLSCRASQSVSTYLAWYQQKPGQAPRLLIYDASNRATGIPARFSGSGSGTDFTLTISSLEPEDFAVYYCQQRSYWWTFGQGTKVEIK
modifications: peptides N-terminally acetylated and C-terminally amidated
B14: CL-509293 (antibody, V domains shown)
VH: QVQLVASGGGVVQPGRSLRLTCAASGFTFSNYGMHWVRQSPGRGLEWVAIIWYDGSNKFYADSVKGRFTISRDNSKNTLYLQMNSLRAEDTAVYYCAKAEQRTNDNYYKYGMDVWGQGTTVTVST
VL: not shown
modifications: peptides N-terminally acetylated and C-terminally amidated
B15: CL-515341 (antibody, V domains shown)
VH: QVYLVESGGGVVQPGKSLRLSCAASGFTFSNYGMHWVRQAPGKGLEWVAIIWHDGSNKFYSDSVRGRFTISRDNSQNTLYLQMNSLSAEDTALYFCAKDIGYSNTWDYFDYWGQGTLVTVSS
VL: EIVLTQSPATLSLSPGERATLSCRASQSVNSFLAWYQQKPGQAPRLLIYDASNRATDIPDRFSGSGSGTDFTLTIRSLEPEDFAVYFCQQRSKWFTFGGGTTVEMK
modifications: peptides N-terminally acetylated and C-terminally amidated
B16: CL-513691 (antibody, V domains shown)
VH: QVQLVESGGDVVQTGRSLRLSCAASGFTFSNYGMHWVRQAPDKGLEWVAIIWYDGSNKFYADSVKGRFTISRDNSKNTLYLHIHSLRAEDTAVYYCARDDRGDSAGPYFVYWGQGTLVTVSS
VL: EIVMTQSPATLSVSPGERATLSCRASQSVSDNLAWYQQRPGQAPRLLIYGASIRATGIPARFGGSGSGTEFTLTISILQSADFAVYYCQQHDSWPWTFGQGTKVEIK
modifications: peptides N-terminally acetylated and C-terminally amidated
B17: CL-447703 (antibody, V domains shown)
VH: QVQLVESGGGVVQPGRSLRLSCEASGFTFSDHGMHWVRQGPGKGLEWVSIIWYDGSNKYYADSVKGRFTISRDNSKNTLYLEMNRLRAEDTALYYCARVWNHDDYKYSMDVWGQGTTVTVSS
VL: not shown
modifications: peptides N-terminally acetylated and C-terminally amidated

What follows are binders tested against PfCSP full length (Plasmodium falciparum (isolate NF54), UniProt P19597) (assay: ELISA AUC).
Sequence of PfCSP full length (P19597 20-375): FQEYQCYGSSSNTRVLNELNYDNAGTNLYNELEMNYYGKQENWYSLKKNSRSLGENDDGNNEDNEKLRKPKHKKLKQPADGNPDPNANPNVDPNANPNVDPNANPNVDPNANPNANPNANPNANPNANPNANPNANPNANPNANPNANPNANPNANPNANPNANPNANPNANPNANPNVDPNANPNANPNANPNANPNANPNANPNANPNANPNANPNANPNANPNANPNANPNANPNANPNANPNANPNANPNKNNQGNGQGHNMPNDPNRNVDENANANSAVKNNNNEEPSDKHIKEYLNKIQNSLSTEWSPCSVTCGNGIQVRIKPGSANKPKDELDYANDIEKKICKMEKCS

Binder | binding score
B1 | 2.3
B2 | 2
B3 | 2.29
B4 | 2.2
B5 | 2.36
B6 | 1.5
B7 | 2.53
B8 | 2.3
B9 | 2.53
B10 | 2.08
B11 | 2.14
B12 | 1.17
B13 | 2.38
B14 | 2.12
B15 | 2.38
B16 | 2.36
B17 | 2.5
